From patent publication US9872921B2, “DE-N-acetyl sialic acid antigens, antibodies thereto, and methods of use in cancer therapy” (priority 2004, dated 2018)

Assays:
[1] = tested on: SK-MEL 28 cells; assay: Cell viability by ViaCount Reagent flow cytometry; format: cell-based, human
Procedure: Cell viability of SK-MEL 28 cells incubated in the presence of SEAM 3 or control mAbs (irrelevant isotype IgG2b or anti-GD3, R24) was determined using ViaCount Reagent (Guava Technologies, Hayward, Calif.), as per manufacturers instructions. […] The viability was analysed using a pre-set program on the Guava EasyCyte flowcytometer. The program has a preset gate for apoptosis and this was routinely incorporated into our studies.

[2] = tested on: CHP-134 neuroblastoma; conditions: approximately proportional to level of antigen on cell surface

B1: SEAM 3: murine anti-N-Pr NmB polysaccharide monoclonal antibody (IgG2b), ATCC Deposit No. HB-12170 (antibody, V domains shown)
VH: EVKLQESGGGLVQPGDSLSLSCAASGFTFTPYYMGWVRQPPGKALEWLGYIRNKANGYTTEYSASVKGRFTISRDNSQSILYLQMNALRAEDSATYYCARYARGTVDSWGQGTTLTVS
VL: DIVMTQSPLTLSVTIGQPASISCKSSQSLLHSNGKTYLNWLLQRPGQSPKLLIYLVSKLESGVPDRFSGSGSGTDFTLKISRVEAEDLGLYYCLQIIHFPHTFGAGTKLELKRA
modifications: mouse
Q: For B1, which “number of viable cells compared to irrelevant IgG2b control mAb” value ([1]; 5 μg/ml, 24 h incubation) is on record?
A: significantly decreases the number of viable cells

Q: And the “number of apoptotic cells compared to IgG2b control mAb” value ([1]; 5 μg/ml, 48 h)?
A: increases the number of apoptotic

Q: And the “number of dead cells compared to IgG2b control mAb” value ([1]; 5 μg/ml, 48 h)?
A: increases

Q: What about the “number of viable cells compared to IgG2b control mAb” value ([1]; 5 μg/ml, 48 h) of the same molecule?
A: decreases the number of viable cells

Q: And the cytotoxic effect ([1]; SK-MEL-28 melanoma, approximately proportional to level of antigen on cell surface)?
A: cytotoxic effect of SEAM 3 was observed

Q: And the cytotoxic effect [2]?
A: cytotoxic effect of SEAM 3 was observed
